Consider one substance from patent US7008781.

The target in this assay is Tie-2 receptor in EAhy926 cells (UniProt Q02763). As to the kind of experiment: cell-based or functional assay. Conditions: scale: fold molar excess of Ang1*.
UniProt Q02763, sequence (Q02763 23-1124 limits assumed): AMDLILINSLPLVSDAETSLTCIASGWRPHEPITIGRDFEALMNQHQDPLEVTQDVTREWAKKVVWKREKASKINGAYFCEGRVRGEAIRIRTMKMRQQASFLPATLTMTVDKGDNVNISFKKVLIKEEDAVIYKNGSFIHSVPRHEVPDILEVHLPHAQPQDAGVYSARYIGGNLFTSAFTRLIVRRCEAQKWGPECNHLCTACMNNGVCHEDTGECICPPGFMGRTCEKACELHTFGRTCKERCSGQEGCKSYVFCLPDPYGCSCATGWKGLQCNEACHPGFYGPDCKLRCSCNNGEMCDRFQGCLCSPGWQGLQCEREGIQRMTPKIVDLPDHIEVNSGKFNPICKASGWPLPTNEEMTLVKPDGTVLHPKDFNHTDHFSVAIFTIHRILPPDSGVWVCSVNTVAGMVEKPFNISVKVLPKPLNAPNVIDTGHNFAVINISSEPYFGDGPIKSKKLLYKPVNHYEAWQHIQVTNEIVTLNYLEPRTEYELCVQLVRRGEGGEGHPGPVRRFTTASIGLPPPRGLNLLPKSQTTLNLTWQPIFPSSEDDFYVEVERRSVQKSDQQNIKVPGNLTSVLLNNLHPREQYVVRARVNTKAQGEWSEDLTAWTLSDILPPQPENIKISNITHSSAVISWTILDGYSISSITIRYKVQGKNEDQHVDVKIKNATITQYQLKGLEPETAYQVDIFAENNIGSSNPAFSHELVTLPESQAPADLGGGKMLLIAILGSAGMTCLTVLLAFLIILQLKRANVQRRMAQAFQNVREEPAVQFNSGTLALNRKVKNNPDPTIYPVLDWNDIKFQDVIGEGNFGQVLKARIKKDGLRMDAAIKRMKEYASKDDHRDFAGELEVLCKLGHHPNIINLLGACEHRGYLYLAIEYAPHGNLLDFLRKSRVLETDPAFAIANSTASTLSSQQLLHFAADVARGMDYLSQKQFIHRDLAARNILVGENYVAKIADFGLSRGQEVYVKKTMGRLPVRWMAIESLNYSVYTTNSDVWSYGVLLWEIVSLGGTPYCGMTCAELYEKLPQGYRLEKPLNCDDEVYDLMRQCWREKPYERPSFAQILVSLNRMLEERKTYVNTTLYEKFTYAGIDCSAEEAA

The substance “angiopoietin-2 (from UniProt O15123 19-496) (ligand)” registered a block of Ang1*-mediated Tie-2 receptor phosphorylation in EAhy926 cells of more than 20.
